Test results from patent publication US5403737A, “Serine protease variants having peptide ligase activity” (priority 1993, dated 1995).

Test: Esterase activity: hydrolysis of an activated ester substrate (Table III)
Format: biochemical
Settings: ratio of the apparent second order rate constants (kcat/KM), Sbz versus pNA substrate
Description: Table III: Kinetic constants for the hydrolysis of an amide substrate (s-Ala-Ala-Pro-Phe-pNA) and for an activated ester substrate (s-Ala-Ala-Pro-Phe-Sbz). The ratio of esterase to amidase activities is the ratio of the apparent second order rate constants (kcat/KM). The aminolysis to hydrolysis ratio was investigated using the thiobenzyl ester substrate with 3.6 mM of the dipeptide Ala-Phe-amide as the nucleophile.
Kinetic Assays. The esterase and amidase activities were obtained from initial rate measurements using a Kontron Uvikon 860 spectrophotometer. The assay for esterase activity utilized the substrate s-Ala-Ala-Pro-Phe-Sbz at (25°±0.2° C.) in 100 mM Tris-HCl (pH 8.60), 4% (v/v) dimethylsulfoxide, 0.005% (v/v) Tween 80. With the non-cysteine containing proteases, DTNB (Ellman (1959), Arch. Biochem. Biophys., 82, 70-77) was added to a concentration of 37.5 μM to visualize the release of thiolbenzoate upon hydrolysis of the substrate. […] The amidase activities were measured under identical conditions by following the increase in absorbance at 412 nm upon hydrolysis of p-nitroanilide from s-Ala-Ala-Pro-Phe-pNA.

- esterase/amidase: 4.8
B1: wild type: wild type subtilisin (BPN') from Bacillus amyloliquefaciens (protein, UniProt P00782 108-382, looked up)
Subtilisin BPN': AQSVPYGVSQIKAPALHSQGYTGSNVKVAVIDSGIDSSHPDLKVAGGASMVPSETNPFQDNNSHGTHVAGTVAALNNSIGVLGVAPSASLYAVKVLGADGSGQYSWIINGIEWAIANNMDVINMSLGGPSGSAALKAAVDKAVASGVVVVAAAGNEGTSGSSSTVGYPGKYPSVIAVGAVDSSNQRASFSSVGPELDVMAPGVSIQSTLPGNKYGAYNGTSMASPHVAGAAALILSKHPNWTNTQVRSSLENTTTKLGDSFYYGKGLINVQAAAQ
